Reference: article PMC10607449, “Structural Characterization of an N-Acetyl Sugar Amidotransferase Involved in the Lipopolysaccharide Biosynthesis in Bacteria” (International Journal of Molecular Sciences, 2023)

Target: the molecule itself
Assay: SEC

B1: N-acetyl sugar amidotransferase from Legionella pneumophila (enzyme)
chain: MSNARIGIDMSKIYAPKSIDLSSFQLPDEKLQTKYGLPHKVEFCKSCVISNQRPNSAVEYEHKKESKKHTIHFDDEGICDACRVAERKKSTINWEERDRQLRELCDRFRSKDGSYDCVVPGSGGKDSFYAAHILKYKYGMNPLTVTWAPHMYTPWGWRNFQSWIHAGFDNHLFTPNGRVHRLLTRLAVENLFHPFQPFMIGQKAYAPKMALLHKIKLVVYGENEAEYGNPIGDTESAKRDWKYFTADDKSKIFLGGTSVQELKSDFGLNDNDLDAYLPADPQQIEEQQVEVHYLGYYLKWHPQSCYYYSVEHGGFEASPERTPGTYSKYNSIDDKIDDFHYYTTLTKFGIGRATYDASQEIRSGDITREEGVALVKRFDQEFPERFAEEIFKYLSINLKEFPIASQMFEQPIMDRAYFMALADTFRSPHLWKKDGEQWKLRHQVTNLEKTKAEYLDLETV
notes: also called LpNASAT; NASAT
stoichiometry N: 2
